From publication doi:10.1101/2021.06.15.448428

Experiments:
Experiment in all cases: co-IP
Hmg2-GFP (S. cerevisiae) = Hmg2-GFP (S. cerevisiae) (UniProt P12684)
[1] = biological target: Pdr5*-Myc (S. cerevisiae) (UniProt P33302)
[2] = biological target: Ste6*-GFP (S. cerevisiae) (UniProt P12866)
Sequence of UniProt P12866 (P12866 whole entry): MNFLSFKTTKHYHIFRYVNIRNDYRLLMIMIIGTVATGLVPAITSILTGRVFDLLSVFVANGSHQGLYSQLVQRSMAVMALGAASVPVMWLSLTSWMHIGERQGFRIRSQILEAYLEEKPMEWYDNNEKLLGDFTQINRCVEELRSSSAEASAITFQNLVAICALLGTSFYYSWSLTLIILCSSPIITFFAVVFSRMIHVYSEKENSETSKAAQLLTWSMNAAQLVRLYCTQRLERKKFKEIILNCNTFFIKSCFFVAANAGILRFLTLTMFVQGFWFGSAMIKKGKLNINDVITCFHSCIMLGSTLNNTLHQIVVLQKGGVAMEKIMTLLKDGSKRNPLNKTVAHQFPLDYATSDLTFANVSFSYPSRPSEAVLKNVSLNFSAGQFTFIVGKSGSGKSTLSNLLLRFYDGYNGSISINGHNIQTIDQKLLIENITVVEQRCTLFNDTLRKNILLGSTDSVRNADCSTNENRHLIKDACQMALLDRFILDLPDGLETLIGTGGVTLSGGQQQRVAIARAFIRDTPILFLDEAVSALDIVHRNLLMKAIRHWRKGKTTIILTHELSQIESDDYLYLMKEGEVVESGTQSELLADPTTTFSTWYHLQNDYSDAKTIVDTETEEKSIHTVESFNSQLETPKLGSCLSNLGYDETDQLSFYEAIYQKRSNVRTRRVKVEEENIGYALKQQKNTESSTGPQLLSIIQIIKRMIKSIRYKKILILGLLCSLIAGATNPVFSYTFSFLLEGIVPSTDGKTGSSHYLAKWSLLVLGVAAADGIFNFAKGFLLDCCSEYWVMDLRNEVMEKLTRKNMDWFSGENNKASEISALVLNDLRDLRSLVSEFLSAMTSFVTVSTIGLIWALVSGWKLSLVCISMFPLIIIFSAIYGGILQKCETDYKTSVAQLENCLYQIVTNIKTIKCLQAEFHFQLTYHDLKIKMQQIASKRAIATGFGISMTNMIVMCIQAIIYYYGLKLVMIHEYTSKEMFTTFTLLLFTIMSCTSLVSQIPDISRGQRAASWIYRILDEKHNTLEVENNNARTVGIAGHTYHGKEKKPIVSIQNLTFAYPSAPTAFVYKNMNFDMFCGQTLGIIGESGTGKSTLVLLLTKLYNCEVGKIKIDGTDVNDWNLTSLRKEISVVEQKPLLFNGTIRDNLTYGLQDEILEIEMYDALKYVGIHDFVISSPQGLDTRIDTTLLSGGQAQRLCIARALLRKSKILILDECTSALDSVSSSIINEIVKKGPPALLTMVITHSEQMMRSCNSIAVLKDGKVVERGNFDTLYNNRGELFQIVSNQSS

Sequence of UniProt P33302 (P33302 whole entry): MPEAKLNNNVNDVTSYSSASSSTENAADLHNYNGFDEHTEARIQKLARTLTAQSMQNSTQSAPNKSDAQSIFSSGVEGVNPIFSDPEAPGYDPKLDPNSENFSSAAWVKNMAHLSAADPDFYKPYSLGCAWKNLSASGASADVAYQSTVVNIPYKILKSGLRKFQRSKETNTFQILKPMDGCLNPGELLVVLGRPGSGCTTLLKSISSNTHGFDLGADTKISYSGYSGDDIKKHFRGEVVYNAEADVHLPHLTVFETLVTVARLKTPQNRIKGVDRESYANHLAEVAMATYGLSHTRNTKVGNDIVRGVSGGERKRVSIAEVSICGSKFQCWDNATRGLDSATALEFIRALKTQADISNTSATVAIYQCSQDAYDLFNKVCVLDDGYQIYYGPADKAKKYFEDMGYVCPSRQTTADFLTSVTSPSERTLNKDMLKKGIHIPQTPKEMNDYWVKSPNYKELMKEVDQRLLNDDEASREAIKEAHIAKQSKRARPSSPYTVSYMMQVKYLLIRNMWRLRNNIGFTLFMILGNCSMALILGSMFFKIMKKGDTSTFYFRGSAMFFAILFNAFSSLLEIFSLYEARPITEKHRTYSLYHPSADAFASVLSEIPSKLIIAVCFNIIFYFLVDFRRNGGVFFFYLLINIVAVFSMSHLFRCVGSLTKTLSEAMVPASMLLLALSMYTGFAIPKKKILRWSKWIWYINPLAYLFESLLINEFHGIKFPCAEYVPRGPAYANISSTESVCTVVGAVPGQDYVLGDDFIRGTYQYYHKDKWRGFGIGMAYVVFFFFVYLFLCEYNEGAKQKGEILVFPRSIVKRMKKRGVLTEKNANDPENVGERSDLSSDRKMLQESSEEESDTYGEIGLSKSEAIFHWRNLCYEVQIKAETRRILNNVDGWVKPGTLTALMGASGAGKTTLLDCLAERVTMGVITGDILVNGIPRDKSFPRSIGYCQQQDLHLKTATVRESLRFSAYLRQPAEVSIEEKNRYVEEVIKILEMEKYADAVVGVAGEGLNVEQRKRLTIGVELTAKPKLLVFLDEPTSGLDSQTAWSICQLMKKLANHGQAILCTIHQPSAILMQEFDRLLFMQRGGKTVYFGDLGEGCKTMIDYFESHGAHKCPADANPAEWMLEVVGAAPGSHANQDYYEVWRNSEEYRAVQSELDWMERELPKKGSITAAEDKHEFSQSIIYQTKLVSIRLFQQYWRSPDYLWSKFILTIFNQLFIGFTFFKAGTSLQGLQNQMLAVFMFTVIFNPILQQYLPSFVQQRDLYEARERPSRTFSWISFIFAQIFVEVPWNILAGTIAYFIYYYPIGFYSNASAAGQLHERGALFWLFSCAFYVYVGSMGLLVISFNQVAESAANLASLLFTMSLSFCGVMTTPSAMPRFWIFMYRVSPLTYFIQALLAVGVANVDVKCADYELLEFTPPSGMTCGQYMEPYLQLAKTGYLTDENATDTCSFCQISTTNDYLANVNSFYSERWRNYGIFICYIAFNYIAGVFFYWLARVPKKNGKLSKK
Sequence of UniProt P12684 (P12684 whole entry): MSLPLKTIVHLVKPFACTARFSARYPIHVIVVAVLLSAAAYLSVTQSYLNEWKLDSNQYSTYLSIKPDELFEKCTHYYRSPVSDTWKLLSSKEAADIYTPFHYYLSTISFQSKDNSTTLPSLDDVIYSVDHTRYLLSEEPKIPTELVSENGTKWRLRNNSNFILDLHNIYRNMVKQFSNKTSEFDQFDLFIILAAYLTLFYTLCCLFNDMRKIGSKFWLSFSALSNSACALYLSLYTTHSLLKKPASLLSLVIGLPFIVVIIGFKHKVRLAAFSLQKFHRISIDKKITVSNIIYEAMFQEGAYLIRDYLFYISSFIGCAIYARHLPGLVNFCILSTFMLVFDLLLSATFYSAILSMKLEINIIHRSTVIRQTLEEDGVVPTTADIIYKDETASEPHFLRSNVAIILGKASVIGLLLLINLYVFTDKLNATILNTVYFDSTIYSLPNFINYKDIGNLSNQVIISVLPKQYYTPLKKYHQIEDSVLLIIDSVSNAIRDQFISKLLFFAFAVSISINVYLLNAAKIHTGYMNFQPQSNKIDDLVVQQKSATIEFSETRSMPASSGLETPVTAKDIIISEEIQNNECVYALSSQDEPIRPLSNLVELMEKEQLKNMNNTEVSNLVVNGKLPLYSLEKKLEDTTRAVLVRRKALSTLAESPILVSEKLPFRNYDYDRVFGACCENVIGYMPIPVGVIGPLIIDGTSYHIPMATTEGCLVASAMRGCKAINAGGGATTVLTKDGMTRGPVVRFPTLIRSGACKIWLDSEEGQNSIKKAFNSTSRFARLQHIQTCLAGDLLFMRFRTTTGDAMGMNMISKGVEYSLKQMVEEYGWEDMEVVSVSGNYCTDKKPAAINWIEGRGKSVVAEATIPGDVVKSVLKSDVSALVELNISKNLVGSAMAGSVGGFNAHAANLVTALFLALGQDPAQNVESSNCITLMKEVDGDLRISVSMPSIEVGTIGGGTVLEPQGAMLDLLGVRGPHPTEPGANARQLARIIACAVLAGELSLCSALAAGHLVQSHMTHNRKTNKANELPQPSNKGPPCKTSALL

fraction bound compared to wildtype Dfm1 (Hmg2-GFP (S. cerevisiae)): < 5%
fraction bound compared to wildtype Dfm1 [1]: < 5%
fraction bound compared to wildtype Dfm1 [2]: < 5%
Substance: Dfm1-5Ashp (from UniProt Q12743 1-341) (natural protein)
